# Source: article PMC3526308
# Biological target: T1, LtmA (Ms6479) (Mycobacterium smegmatis mc2155, UniProt A0R6A5 1-189)
# T1 sequence: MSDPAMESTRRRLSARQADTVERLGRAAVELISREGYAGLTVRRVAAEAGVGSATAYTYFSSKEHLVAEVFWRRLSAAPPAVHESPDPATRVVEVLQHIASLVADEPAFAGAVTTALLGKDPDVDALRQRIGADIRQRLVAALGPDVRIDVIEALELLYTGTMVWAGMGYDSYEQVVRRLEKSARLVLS
# Test: EMSA
row,Binder,binding result
1,Ms6484p4 (dsDNA) DNA 1: CTCCGAAACCTCTGGACATGTGTCCAGACTATAGTTTG DNA 2: CAAACTATAGTCTGGACACATGTCCAGAGGTTTCGGAG,binds
2,Ms6484p5 (dsDNA) DNA 1: CAAACTATAGCAGCTCTCCACCTGACACGGTTTCGGAG DNA 2: CTCCGAAACCGTGTCAGGTGGAGAGCTGCTATAGTTTG,no binding
